Data as given in patent publication US7041801 (VANDERBILT UNIVERSITY, dated 2006).

Target: T1, integrin αVβ3 expressed by human umbilical vein endothelial cells (HUVEC) (human, UniProt P06756 31-1048; P05106 27-788)
T1 construct: whole, on cells; also called integrin alpha V beta 3
Assay: binding to HUVEC; the receptor on HUVEC was identified as αVβ3
Procedure: Human umbilical vein endothelial cells (HUVEC) (Clonetics Inc., San Diego, Calif.) were grown as indicated by the supplier in endothelial growth media supplemented with 10 ng/ml human recombinant epidermal growth factor, 1 μg/ml hydrocortisone, 50 μg/ml gentamicin, 12 μg/ml bovine brain extract and 2% FBS. Cells were grown at: 37° C./5% CO_2 to 70% confluency before use in the binding assay. […] The plates were washed with PBS and blocked for 30 min with a solution of heat treated (95° C. for 5 min) PBS containing 3% BSA. HUVEC cells were harvested by trypsinization and resuspended in an adhesion buffer (Hanks balanced salt solution pH 7.4 containing 10 mM Hepes, 2.2 mM MgCl_2, 0.2 mM MnCl_2 and 1% BSA). Cells (10^4/100 μl) were added to each well in the presence or absence of the indicated antagonists or controls at varying concentrations. […] Cells were incubated at 37° C./5% CO_2 for 60–90 min and wells were washed until no cells remained in the BSA control. To count remaining cells, 100 μl of endothelial media was added to each well. Cells number was determined by the Promega Cell titer AQ as indicated by the manufacturer.

T1 sequence (P06756 31-1048, chain 1 of 2): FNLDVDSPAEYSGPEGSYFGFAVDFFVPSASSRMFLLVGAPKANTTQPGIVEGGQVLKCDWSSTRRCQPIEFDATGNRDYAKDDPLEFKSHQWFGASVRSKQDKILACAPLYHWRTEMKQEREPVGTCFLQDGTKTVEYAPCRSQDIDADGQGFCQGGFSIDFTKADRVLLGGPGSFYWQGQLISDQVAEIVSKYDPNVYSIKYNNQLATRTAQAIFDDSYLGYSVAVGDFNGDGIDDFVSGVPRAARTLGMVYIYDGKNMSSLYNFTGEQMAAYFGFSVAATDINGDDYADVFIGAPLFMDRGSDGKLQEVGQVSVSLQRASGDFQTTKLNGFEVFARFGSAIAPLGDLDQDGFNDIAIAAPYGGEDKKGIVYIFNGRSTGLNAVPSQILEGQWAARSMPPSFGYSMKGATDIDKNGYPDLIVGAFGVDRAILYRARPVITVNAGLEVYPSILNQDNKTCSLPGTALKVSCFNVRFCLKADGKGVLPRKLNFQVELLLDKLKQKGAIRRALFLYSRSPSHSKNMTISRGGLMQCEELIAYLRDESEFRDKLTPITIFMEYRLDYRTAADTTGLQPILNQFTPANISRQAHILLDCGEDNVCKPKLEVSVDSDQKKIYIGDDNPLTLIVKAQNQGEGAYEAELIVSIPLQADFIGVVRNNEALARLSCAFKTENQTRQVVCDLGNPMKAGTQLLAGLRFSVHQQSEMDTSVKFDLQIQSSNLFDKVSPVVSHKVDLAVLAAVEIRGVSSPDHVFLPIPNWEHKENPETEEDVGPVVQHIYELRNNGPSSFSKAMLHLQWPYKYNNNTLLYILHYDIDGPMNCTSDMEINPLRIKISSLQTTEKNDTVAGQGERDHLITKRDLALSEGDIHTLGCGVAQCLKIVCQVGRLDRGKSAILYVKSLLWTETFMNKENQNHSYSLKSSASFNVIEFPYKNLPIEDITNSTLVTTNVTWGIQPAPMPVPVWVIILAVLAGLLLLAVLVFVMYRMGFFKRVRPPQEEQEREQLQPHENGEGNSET
T1 sequence (P05106 27-788, chain 2 of 2): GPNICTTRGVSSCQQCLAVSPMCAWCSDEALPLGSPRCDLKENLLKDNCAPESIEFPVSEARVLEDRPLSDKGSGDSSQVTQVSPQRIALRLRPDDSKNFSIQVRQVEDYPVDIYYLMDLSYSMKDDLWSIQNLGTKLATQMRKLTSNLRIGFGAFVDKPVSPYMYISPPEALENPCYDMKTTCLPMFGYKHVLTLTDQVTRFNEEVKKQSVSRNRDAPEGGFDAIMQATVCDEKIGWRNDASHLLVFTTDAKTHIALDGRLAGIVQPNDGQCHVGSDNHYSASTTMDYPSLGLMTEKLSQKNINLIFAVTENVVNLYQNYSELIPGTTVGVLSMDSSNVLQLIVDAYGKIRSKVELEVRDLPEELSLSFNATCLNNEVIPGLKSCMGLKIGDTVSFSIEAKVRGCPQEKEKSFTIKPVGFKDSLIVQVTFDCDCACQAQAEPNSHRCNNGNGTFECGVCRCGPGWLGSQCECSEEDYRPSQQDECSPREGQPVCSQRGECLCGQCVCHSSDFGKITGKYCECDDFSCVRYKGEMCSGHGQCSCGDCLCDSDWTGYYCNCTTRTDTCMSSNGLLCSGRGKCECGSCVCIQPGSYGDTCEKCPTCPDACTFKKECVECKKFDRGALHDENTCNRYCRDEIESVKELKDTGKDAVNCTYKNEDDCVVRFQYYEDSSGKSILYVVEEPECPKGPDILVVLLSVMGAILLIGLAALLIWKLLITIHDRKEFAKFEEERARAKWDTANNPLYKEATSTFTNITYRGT

B1: murine Del-1 (major form) expressed by del-1 transfected yolk sac YS-B cells (ligand)
chain: DICNPNPCENGGICLSGLADDSFSCECPEGFAGPNCSSVVEVASDEEKPTSAGPCIPNPCHNGGTCEISEAYRGDTFIGYVCKCPRGFNGIHCQHNINECEAEPCRNGGICTDLVANYSCECPGEFMGRNCQYKCSGHLGIEGGIISNQQITASSNHRALFGLQKWYPYYARLNKKGLINAWTAAENDRWPWIQINLQRKMRVTGVITQGAKRIGSPEYIKSYKIAYSNDGKTWAMYKVKGTNEEMVFRGNVDNNTPYANSFTPPIKAQYVRLYPQICRRHCTLRMELLGCELSGCSEPLGMKSGHIQDYQITASSVFRTLNMDMFTWEPRKARLDKQGKVNAWTSGHNDQSQWLQVDLLVPTKVTGIITQGAKDFGHVQFVGSYKLAYSNDGEHWMVHQDEKQRKDKVFQGNFDNDTHRKNVIDPPIYARFIRILPWSWYGRITLRSELLGCAEEE
notes: The protein is found in cell lysates, on the cell membrane and in the extracellular matrix of the transfectants (52 kDa band); also called del-1 transfectants; full-length Del-1 protein
B1: binds.
